Test results reported in PMC6093788.

Biological target: azide-labeled Aβ (14–23) peptide
Assay: AFM force spectroscopy

Substance: azide-labeled Aβ (14–23) peptide
- rupture force, dimer of neighbouring peptides (two-peak curves, peaks close): 44 pN
- rupture force, dimer of peptides 1 and 3 (two-peak curves, peaks far): 37 pN
- rupture force, monomer from the trimer (peak 1): 48 pN
- rupture force, monomer from the trimer (peak 1), second experiment: 44 pN
- rupture force, remaining dimer to monomers (peak 2): 53 pN
- rupture force, remaining dimer to monomers (peak 2), second experiment: 50 pN
- stoichiometry N: 3
